Consider two sequences from paper PMC4629891.

In the data set the target is nucleolin (on the surface of live Huh7 cells) (UniProt P19338). The experiment in a line: flow cytometry on live Huh7 cells. Conditions: 5 mM MgCl2, whole-cell apparent Kd, Dulbecco's PBS, 4.5 g/L glucose, 5 mM MgCl2, 0.1 mg/mL yeast tRNA, 1 mg/mL BSA, on ice 30 min, 2x10^5 cells in 200 uL, pH not stated. (In general: Flow cytometry measures light scatter and fluorescence of single cells or particles in a stream.)
Sequence of UniProt P19338 (P19338 whole entry): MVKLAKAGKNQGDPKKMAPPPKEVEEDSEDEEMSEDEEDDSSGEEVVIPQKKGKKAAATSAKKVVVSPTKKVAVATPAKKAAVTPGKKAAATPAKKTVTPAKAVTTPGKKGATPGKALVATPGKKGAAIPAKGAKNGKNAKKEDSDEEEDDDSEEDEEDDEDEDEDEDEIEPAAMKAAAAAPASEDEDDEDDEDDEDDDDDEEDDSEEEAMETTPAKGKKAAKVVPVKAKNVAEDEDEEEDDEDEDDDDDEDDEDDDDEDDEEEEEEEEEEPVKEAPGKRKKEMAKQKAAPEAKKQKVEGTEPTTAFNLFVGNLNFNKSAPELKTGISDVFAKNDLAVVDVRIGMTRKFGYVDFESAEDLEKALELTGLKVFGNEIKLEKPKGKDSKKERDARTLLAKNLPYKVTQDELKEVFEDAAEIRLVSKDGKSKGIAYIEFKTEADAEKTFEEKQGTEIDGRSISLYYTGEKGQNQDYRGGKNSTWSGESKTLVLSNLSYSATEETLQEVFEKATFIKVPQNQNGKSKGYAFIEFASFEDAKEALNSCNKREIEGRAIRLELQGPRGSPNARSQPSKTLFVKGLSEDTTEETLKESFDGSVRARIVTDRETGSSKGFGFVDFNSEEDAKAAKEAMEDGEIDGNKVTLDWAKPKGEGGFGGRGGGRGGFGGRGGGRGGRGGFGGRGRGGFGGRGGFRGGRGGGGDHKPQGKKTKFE

For the sequence “GGTGGTGGTGGTTGTGGTGGTGGTGG [AS1411 (AGRO100)]”, the Kd was 54.8 nM.
As to “GGTGGTGGTGGTTGTGGTGGTGGTGG [AS1411-Dox adduct]”, the Kd (doxorubicin adducts via formaldehyde methylene links to guanine N2, 5.4 +/- 0.1 Dox per strand) came to 57.3 nM.
